Values quoted from earlier work as cited in article PMC3218432.

Molecular target: Asp85 (UniProt position 98, WARYADWLFTT)

Bacteriorhodopsin (Halobacterium salinarum (not stated in the article; described as archaeal))
pKa: 2.3
